Data reported in PMC7968734.

Molecular target: replication protein A (RPA) heterotrimer, full-length (UniProt P15927)
Experiment: FluorIA

Row | Binder | RFU (NC, no inhibitor) [RFU] | percent inhibition of EGFP-RAD52 binding at a molar ratio of 1:1 [%]
1 | Full-length RAD52 tagged with 6X-His enhanced green fluorescent protein (EGFP-RAD52) (natural protein) MSGTEEAILGGRDSHPAAGGGSVLCFGQCQYTAEEYQAIQKALRQRLGPEYISSRMAGGGQKVCYIEGHRVINLANEMFGYNGWAHSITQQNVDFVDLNNGKFYVGVCAFVRVQLKDGSYHEDVGYGVSEGLKSKALSLEKARKEAVTDGLKRALRSFGNALGNCILDKDYLRSLNKLPRQLPLEVDLTKAKRQDLEPSVEEARYNSCRPNMALGHPQLQQVTSPSRPSHAVIPADQDCSSRSLSSSAVESEATHQRKLRQKQLQQQFRERMEKQQVRVSTPSAEKSEAAPPAPPVTHSTPVTVSEPLLEKDFLAGVTQELIKTLEDNSEKWAVTPDAGDGVVKPSSRADPAQTSDTLALNNQMVTQNRTPHSVCHQKPQAKSGSWDLQTYSADQRTTGNWESHRKSQDMKKRKYDPS | 17100 | –
2 | RAD52(1-303) (domain or fragment) MSGTEEAILGGRDSHPAAGGGSVLCFGQCQYTAEEYQAIQKALRQRLGPEYISSRMAGGGQKVCYIEGHRVINLANEMFGYNGWAHSITQQNVDFVDLNNGKFYVGVCAFVRVQLKDGSYHEDVGYGVSEGLKSKALSLEKARKEAVTDGLKRALRSFGNALGNCILDKDYLRSLNKLPRQLPLEVDLTKAKRQDLEPSVEEARYNSCRPNMALGHPQLQQVTSPSRPSHAVIPADQDCSSRSLSSSAVESEATHQRKLRQKQLQQQFRERMEKQQVRVSTPSAEKSEAAPPAPPVTHSTPVT | – | 50
